{"source": "paper PMC6053526", "about": "“Arabidopsis WRKY50 and TGA Transcription Factors Synergistically Activate Expression of PR1”", "key": {"GST-AtWRKY50-C [1]": {"target": "T1, GST-AtWRKY50-C (Arabidopsis thaliana, UniProt Q8VWQ5 86-173)", "T1 sequence (Q8VWQ5 86-173)": "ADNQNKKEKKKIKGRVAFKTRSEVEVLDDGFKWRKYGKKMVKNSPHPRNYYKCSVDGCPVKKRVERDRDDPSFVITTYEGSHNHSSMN", "experiment": "EMSA; 5x buffer (3 uL in 14 uL): 20% glycerol, 5 mM MgCl2, 2.5 mM EDTA, 2.5 mM DTT, 250 mM NaCl, 50 mM Tris-HCl pH 7.5, 0.25 mg/ml poly(dI-dC); 0.5 ug protein; 10 min RT, then 60 min on ice with probe; gel at 4 C", "conditions": "protein: recombinant, tags: GST (N-term), label: 32P"}, "TGA2-His [2]": {"target": "T2, TGA2-His (Arabidopsis thaliana, UniProt P43273 1-330)", "T2 sequence": "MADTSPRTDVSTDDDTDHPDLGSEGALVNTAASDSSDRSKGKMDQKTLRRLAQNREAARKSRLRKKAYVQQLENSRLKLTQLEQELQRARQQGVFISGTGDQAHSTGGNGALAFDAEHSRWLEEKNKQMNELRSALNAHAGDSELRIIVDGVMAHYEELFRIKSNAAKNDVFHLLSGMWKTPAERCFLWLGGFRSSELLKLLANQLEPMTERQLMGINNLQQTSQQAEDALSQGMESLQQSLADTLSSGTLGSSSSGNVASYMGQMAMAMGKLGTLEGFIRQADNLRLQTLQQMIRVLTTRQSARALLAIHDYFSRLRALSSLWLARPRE", "experiment": "EMSA; 5x buffer (3 uL in 14 uL): 20% glycerol, 5 mM MgCl2, 2.5 mM EDTA, 2.5 mM DTT, 250 mM NaCl, 50 mM Tris-HCl pH 7.5, 0.25 mg/ml poly(dI-dC); 0.5 ug protein; 10 min RT, then 60 min on ice with probe; gel at 4 C", "conditions": "protein: recombinant; tags: His; chain copies: 2; label: 32P; blunt"}, "GST-AtWRKY50-C [3]": {"target": "T1, GST-AtWRKY50-C", "experiment": "EMSA; enhanced vs fragment A; 5x buffer (3 uL in 14 uL): 20% glycerol, 5 mM MgCl2, 2.5 mM EDTA, 2.5 mM DTT, 250 mM NaCl, 50 mM Tris-HCl pH 7.5, 0.25 mg/ml poly(dI-dC); 0.5 ug protein; 10 min RT, then 60 min on ice with probe; gel at 4 C", "conditions": "protein: recombinant; tags: GST (N-term); label: 32P; 5' overhang 3 nt (GGG) both ends"}, "GST-AtWRKY50-C [4]": {"target": "T1, GST-AtWRKY50-C", "experiment": "EMSA; as wild type D; 5x buffer (3 uL in 14 uL): 20% glycerol, 5 mM MgCl2, 2.5 mM EDTA, 2.5 mM DTT, 250 mM NaCl, 50 mM Tris-HCl pH 7.5, 0.25 mg/ml poly(dI-dC); 0.5 ug protein; 10 min RT, then 60 min on ice with probe; gel at 4 C", "conditions": "protein: recombinant; tags: GST (N-term); label: 32P; 5' overhang 3 nt (GGG) both ends"}, "TGA2-His [5]": {"target": "T2, TGA2-His", "experiment": "EMSA; shift increased by full-length AtWRKY50; 5x buffer (3 uL in 14 uL): 20% glycerol, 5 mM MgCl2, 2.5 mM EDTA, 2.5 mM DTT, 250 mM NaCl, 50 mM Tris-HCl pH 7.5, 0.25 mg/ml poly(dI-dC); 0.5 ug protein; 10 min RT, then 60 min on ice with probe; gel at 4 C", "conditions": "protein: recombinant; tags: His; chain copies: 2; label: 32P; blunt"}}, "data": [{"binder": "fragment A (dsDNA) DNA 1: GGTGATCTATTGACTGTTTCTCTACGTCACTA DNA 2: TAGTGACGTAGAGAAACAGTCAATAGATCACC", "values": [{"measurement": "binding result", "setting": "GST-AtWRKY50-C [1]; blunt", "value": "binds"}, {"measurement": "binding result", "setting": "TGA2-His [2]", "value": "no binding"}]}, {"binder": "fragment D (dsDNA) DNA 1: GATGTGGCGGCATATATTCTTCAGGACTTTTC DNA 2: GAAAAGTCCTGAAGAATATATGCCGCCACATC", "values": [{"measurement": "binding result", "setting": "GST-AtWRKY50-C [1]; blunt", "value": "binds"}]}, {"binder": "Am1 (dsDNA) DNA 1: GGGGGTGATCTATTGACTTTTCTCTACGTCACTAT DNA 2: GGGATAGTGACGTAGAGAAAAGTCAATAGATCACC", "values": [{"measurement": "binding result", "setting": "GST-AtWRKY50-C [3]", "value": "binds"}]}, {"binder": "Am2 (dsDNA) DNA 1: GGGGGTGATCTATTGACTGCCTCTCTACGTCACTA DNA 2: GGGTAGTGACGTAGAGAGGCAGTCAATAGATCACC", "values": [{"measurement": "binding result", "setting": "GST-AtWRKY50-C [1]; 5' overhang 3 nt (GGG) both ends", "value": "no binding"}]}, {"binder": "Dm2 (dsDNA) DNA 1: GGGGATGTGGCGGCATATATTCCCCAGGACTTTTC DNA 2: GGGGAAAAGTCCTGGGGAATATATGCCGCCACATC", "values": [{"measurement": "binding result", "setting": "GST-AtWRKY50-C [4]", "value": "binds"}]}, {"binder": "fragment B (dsDNA) DNA 1: TTTCTCTACGTCACTATTTTACTTACGTCATA DNA 2: TATGACGTAAGTAAAATAGTGACGTAGAGAAA", "values": [{"measurement": "binding result", "setting": "TGA2-His [5]", "value": "binds"}]}, {"binder": "fragment C (dsDNA) DNA 1: TTTTACTTACGTCATAGATGTGGCGGCATATA DNA 2: TATATGCCGCCACATCTATGACGTAAGTAAAA", "values": [{"measurement": "binding result", "setting": "TGA2-His [5]", "value": "binds"}]}]}
